Experimental data: the RNAGym collection of RNA variant scans (doi:10.1073/pnas.2313332121)

B1: TPR t1 (parent)
chain: GACCAAUCUGCCCUCAGAGCUCGAGAACAUCUUCGGAUGCAGAGGAGGCAGGCUUCGGUGGCGCGAUAGCGCCAACGUCCUCAACCUCCAAUGCAUCCCACCACAUGAUGAUGCCUGAAGAGCCUUGGUUUUUUG

Variants of: B1
Assay: polymerase ribozyme fitness, log enrichment relative to wild type (log ratio); higher = more active; in vitro selection for triplet polymerase activity
Summary of the method: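 Genotype fitness is the logarithm of its enrichment divided by wild-type enrichment, using inverse-variance-weighted averages of replicates. That logarithm is base 2. Enrichment was measured by Illumina sequencing of input and output libraries from one triplicate in vitro selection round, with frozen incubation at −7 °C, on PCR-built, transcribed mutant libraries of each subunit of a heterodimeric triplet polymerase ribozyme, retaining genotypes with ≥10 input reads and ≥1 read per output.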

Row | Variant | polymerase ribozyme fitness (log ratio)
1 | GACCAAUCUGCCCUCAGAGCUCGAGAACAUCUUCGGAUGCAGAGGAGGCAGGCUUCGGUGGCGCGAUAGCGCCAACGUCCUAAACCUCCAAUGAAUCCCACCAAAUGAUGAUGCCUGAAGAGCCUUGGUUUUUUG | -3.13
2 | GACCAAUCUGCCCUCAGAGCUCGAGAACAUCUUCGGAUGCAGAGGAGGCAGGCUUCGGUGGCGCGAUAGCGCCAACGUCCUGAAACUCCAAUGCAUCCCACCACAUGAUGGUUCCUGAAGAGCCUUGGUGUUUUG | -4.27
3 | GACCAAUCUGCCCUCAGAGCUCGAGAACAUCUUCGGAUGCAGAGGAGGCAGGCUUCGGUGGCGCGAUAGCGCCAACGUCCGCAACCUCCAAUGCGUCCCACCACAUGAUGAUGCCUGAAGAGCCUUGGUUUUUUG | -4.01
4 | GACCAAUCUGCCCUCAGAGCUCGAGAACAUCUUCGGAUGCAGAGGAGGCAGGCUUCGGUGGCGCGAUAGCGCCAACGUCCGCAACCUCCAAUGCAUCCCACCACAUGAUGAUGCCUGAAGAGCCUUGGUUAUUUG | -3.6
5 | GACCAAUCUGCCCUCAGAGCUCGAGAACAUCUUCGGAUGCAGAGGAGGCAGGCUUCGGUGGCGCGAUAGCGCCAACGUCCUUUACCUCCAAUGCAUCCCACCACAUGAUGUUGCCUGAAGAGCCUUGGUUUUUUG | -3.12
6 | GACCAAUCUGCCCUCAGAGCUCGAGAACAUCUUCGGAUGCAGAGGAGGCAGGCUUCGGUGGCGCGAUAGCGCCAACGUCCACAACCUCCAAUGCAUCCCACCACAUGAUGAUGCGUGAAGAGCCUUGGUUUUUUG | -2.4
7 | GACCAAUCUGCCCUCAGAGCUCGAGAACAUCUUCGGAUGCAGAGGAGGCAGGCUUCGGUGGCGCGAUAGCGCCAACGUCCUGAACCUCCAAUGCAUCCCAUCACAUGAUGAUGCAUGAAGAGCCAUGGUUUUUUG | -1.73
8 | GACCAAUCUGCCCUCAGAGCUCGAGAACAUCUUCGGAUGCAGAGGAGGCAGGCUUCGGUGGCGCGAUAGCGCCAACGUCCGCACCCUCCAAUGCAUCCCACCACAUGAUGAUACCUGAAGAGCCUUGGUUUUUUG | -3.43
9 | GACCAAUCUGCCCUCAGAGCUCGAGAACAUCUUCGGAUGCAGAGGAGGCAGGCUUCGGUGGCGCGAUAGCGCCAACGUCCUAAACCUCCAAUCCAUUCCACCACAUGAUGAUUCCUGAAGAGCCUUGGUUUUUUG | -4.46
10 | GACCAAUCUGCCCUCAGAGCUCGAGAACAUCUUCGGAUGCAGAGGAGGCAGGCUUCGGUGGCGCGAUAGCGCCAACGUCCGCAACCUCCAAUGCAUCCCACCACAUGAUGAUGCCUGAAGAGCCUUCGUUUUUUG | -4.77
11 | GACCAAUCUGCCCUCAGAGCUCGAGAACAUCUUCGGAUGCAGAGGAGGCAGGCUUCGGUGGCGCGAUAGCGCCAACGUCCUAAACCUCGAAUGCAUCCCAAAACAUGAUGACGCCUGAAGAGACUUGGUUUUUUG | -6.34
12 | GACCAAUCUGCCCUCAGAGCUCGAGAACAUCUUCGGAUGCAGAGGAGGCAGGCUUCGGUGGCGCGAUAGCGCCAACGUCCUAAACCUCCAAUGCAUCCCACCACAUGAUGAUGCCUGAAGAGCCAUGGUUUUUUG | -0.778
13 | GACCAAUCUGCCCUCAGAGCUCGAGAACAUCUUCGGAUGCAGAGGAGGCAGGCUUCGGUGGCGCGAUAGCGCCAACGUCCGCAACCUCCAAUGCAUCCCACCACAUGAUGAUGCCUGAAGAUGCUUGGAUUUUUG | -4.51
14 | GACCAAUCUGCCCUCAGAGCUCGAGAACAUCUUCGGAUGCAGAGGAGGCAGGCUUCGGUGGCGCGAUAGCGCCAACGUCCUGAACCUCCGGUGCAUCCCAGCACAUGAUGAUGCCUGAAGAGCCUUGGUUUUUUG | -2.95
15 | GACCAAUCUGCCCUCAGAGCUCGAGAACAUCUUCGGAUGCAGAGGAGGCAGGCUUCGGUGGCGCGAUAGCGCCAACGUCCUGAACCUCCAAUGCAUCCCACCACAUGAUGAUACCUGAAGAGCCUUGGUUUUUUG | -1.04
16 | GACCAAUCUGCCCUCAGAGCUCGAGAACAUCUUCGGAUGCAGAGGAGGCAGGCUUCGGUGGCGCGAUAGCGCCAACGUCCCCAACCUCCAAUACAUCCCACCACAUGAUGAUGCCUGAAGAGACUUGGUUUUUUG | -0.322
17 | GACCAAUCUGCCCUCAGAGCUCGAGAACAUCUUCGGAUGCAGAGGAGGCAGGCUUCGGUGGCGCGAUAGCGCCAACGUCCUAAACCUCAAAUGCAUCCCACCACAUGAUGAUGCCUGAAGAGCCUUGGUUUUUUG | -2.78
18 | GACCAAUCUGCCCUCAGAGCUCGAGAACAUCUUCGGAUGCAGAGGAGGCAGGCUUCGGUGGCGCGAUAGCGCCAACGUCCUGAACCUCCAAUGCAUCCCACCACAUGAUGAUGCCUGAAUAGCCUUGGUUUUUUG | -0.592
19 | GACCAAUCUGCCCUCAGAGCUCGAGAACAUCUUCGGAUGCAGAGGAGGCAGGCUUCGGUGGCGCGAUAGCGCCAACGUCCUGAACCUCCAAUGCAUCCCACCACAUGAUGAUGCCUGAAAAGCCUUGGUUUUUUG | -0.124
20 | GACCAAUCUGCCCUCAGAGCUCGAGAACAUCUUCGGAUGCAGAGGAGGCAGGCUUCGGUGGCGCGAUAGCGCCAACGUCCUGAACCUCCUAUGCAUCCCACCACAUGAUGAUGCCUGAAGAGCCUUGGUUUUUUG | -2.11
21 | GACCAAUCUGCCCUCAGAGCUCGAGAACAUCUUCGGAUGCAGAGGAGGCAGGCUUCGGUGGCGCGAUAGCGCCAACGUCCGCAACCUACAAUGCAUCCCACCACAUGAUGAUGCCUGAAGAGCCUUGGUUUUUUG | -2.78
